Results: patent publication US20240092890A1 (JUNTENDO EDUCATIONAL FOUNDATION, published 2024)

T1: Ins 5 type mutant CALR protein on UT-7/TPO CALR Ins 5 cells (UniProt P27797 18-417)
T1 sequence (looked up): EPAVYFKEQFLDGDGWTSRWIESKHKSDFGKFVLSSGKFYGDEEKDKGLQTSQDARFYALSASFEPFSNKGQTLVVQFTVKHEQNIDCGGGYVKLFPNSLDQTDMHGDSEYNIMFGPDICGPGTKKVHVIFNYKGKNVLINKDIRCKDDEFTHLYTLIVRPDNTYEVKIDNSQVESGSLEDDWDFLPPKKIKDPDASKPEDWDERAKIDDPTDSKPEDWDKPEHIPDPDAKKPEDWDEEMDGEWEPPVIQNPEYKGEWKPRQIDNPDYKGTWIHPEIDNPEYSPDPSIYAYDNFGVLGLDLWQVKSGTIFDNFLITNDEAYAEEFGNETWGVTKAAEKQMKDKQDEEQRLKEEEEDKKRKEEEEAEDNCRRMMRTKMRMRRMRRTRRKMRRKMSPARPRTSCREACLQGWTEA

T2: protein having an Fc region and a His-tag added to the N-terminus of SEQ ID NO: 1
T2 construct: also called mutant CALR protein (antigen of the BLItz measurement); not shown: Fc region and His-tag at the N-terminus
T2 chain: RRMMRTKMRMRRM


How the values were obtained:
[1] = molecular target: T1, Ins 5 type mutant CALR protein on …; assay: cell-based or functional assay
[2] = molecular target: T2, protein having an Fc region and a …; assay: BLItz biolayer interferometry, Fc/His-SEQ ID NO: 1 protein on the biosensor
Summary of the method: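 The Fc/His-tagged protein was loaded at 0.1 mg/mL onto Anti-Penta-HIS or Protein A biosensors. Antibodies were run at 500, 100 and 50 nM by biolayer interferometry, and the dissociation constant was derived from these binding curves.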

| Binder | Kd [2] | EC50 of cytotoxic activity (pM) [1] |
| --- | --- | --- |
| Antibody 106 (bispecific antibody) chain 1: QVQLVQSGAEVKKPGSSVKVSCKASGYTFTRNFIHWIRQAPGQGLEWIGWIFPGDADTEYNQKFSGRATITADKSTSTAYMELSSLRSEDTAVYYCARGNYNYEYFDYWGQGTMVTVSSASTKGPSVFPLAPSSKSTSGGTAALGCLVKDYFPEPVTVSWNSGALTSGVHTFPAVLQSSGLYSLSSVVTVPSSSLGTQTYICNVNHKPSNTKVDKRVEPKSCGGGGSQVQLVQSGGGVVQPGRSLRLSCKASGYTFTRYTMHWVRQAPGKGLEWIGYINPSRGYTNYNQKVKDRFTISRDNSKNTAFLQMDSLRPEDTGVYFCARYYDDHYSLDYWGQGTPVTVSSGGGGSGGGGSGGGGSDIQMTQSPSSLSASVGDRVTITCSASSSVSYMNWYQQTPGKAPKRWIYDTSKLASGVPSRFSGSGSGTDYTFTISSLQPEDIATYYCQQWSSNPFTFGQGTKLQITRHHHHHH chain 2: DIQMTQSPSSLSASVGDRVTITCLASEDIYSYLAWYQQKPGKAPKLLIFAANRLQDGVPSRFSGSGSGTDFTLTISSLQPEDFATYYCLQGSKFPYTFGPGTKVDIKRTVAAPSVFIFPPSDEQLKSGTASVVCLLNNFYPREAKVQWKVDNALQSGNSQESVTEQDSKDSTYSLSSTLTLSKADYEKHKVYACEVTHQGLSSPVTKSFNRGEC | 4.99 nM | 2560 pM |
| Antibody 111 (bispecific antibody) chain 1: not shown chain 2: DIQMTQSPSSLSASVGDRVTITCLASEDIYSYLAWYQQKPGKAPKLLIFAANRLQSGVPSRFSGSGSGTDFTLTISSLQPEDFATYYCLQGSKFPYTFGPGTKVDIKRTVAAPSVFIFPPSDEQLKSGTASVVCLLNNFYPREAKVQWKVDNALQSGNSQESVTEQDSKDSTYSLSSTLTLSKADYEKHKVYACEVTHQGLSSPVTKSFNRGEC chain 3: DKTHTCPPCPAPEAAGGPSVFLFPPKPKDTLMISRTPEVTCVVVDVSHEDPEVKFNWYVDGVEVHNAKTKPREEQYNSTYRVVSVLTVLHQDWLNGKEYKCKVSNKALPAPIEKTISKAKGQPREPQVCTLPPSREEMTKNQVSLSCAVKGFYPSDIAVEWESNGQPENNYKTTPPVLDSDGSFFLVSKLTVDKSRWQQGNVFSCSVMHEALHNHYTQKSLSLSPGK | 12.8 nM | 6110 pM |
| Antibody 103 (bispecific antibody, human IgG1, kappa, L234A L235A) chain 1: not shown chain 2: DIQMTQSPSSLSASVGDRVTITCLASEDIYSYLAWYQQKPGKAPKLLIFAANRLQSGVPSRFSGSGSGTDFTLTISSLQPEDFATYYCLQGSKFPYTFGPGTKVDIKRTVAAPSVFIFPPSDEQLKSGTASVVCLLNNFYPREAKVQWKVDNALQSGNSQESVTEQDSKDSTYSLSSTLTLSKADYEKHKVYACEVTHQGLSSPVTKSFNRGECGGGGSGGGGSQVQLVQSGGGVVQPGRSLRLSCKASGYTFTRYTMHWVRQAPGKGLEWIGYINPSRGYTNYNQKVKDRFTISRDNSKNTAFLQMDSLRPEDTGVYFCARYYDDHYSLDYWGQGTPVTVSSGGGGSGGGGSGGGGSDIQMTQSPSSLSASVGDRVTITCSASSSVSYMNWYQQTPGKAPKRWIYDTSKLASGVPSRFSGSGSGTDYTFTISSLQPEDIATYYCQQWSSNPFTFGQGTKLQITR | < 0.001 nM | 399 pM |

Second part, led by results:

| Kd [2] | Binder | EC50 of cytotoxic activity (pM) [1] |
| --- | --- | --- |
| 6.06 nM | Antibody 114 (bispecific antibody) chain 1: DIQMTQSPSSLSASVGDRVTITCLASEDIYSYLAWYQQKPGKAPKLLIFAANRLQSGVPSRFSGSGSGTDFTLTISSLQPEDFATYYCLQGSKFPYTFGPGTKVDIKGGGGSGGGGSGGGGSQVQLVQSGAEVKKPGSSVKVSCKASGYTFTRNFIHWIRQAPGQGLEWIGWIFPGDADTEYNQKFSGRATITADKSTSTAYMELSSLRSEDTAVYYCARGNYNYEYFDYWGQGTMVTVSSGGGGSGGGGSGGGGSDKTHTCPPCPAPEAAGGPSVFLFPPKPKDTLMISRTPEVTCVVVDVSHEDPEVKFNWYVDGVEVHNAKTKPREEQYNSTYRVVSVLTVLHQDWLNGKEYKCKVSNKALPAPIEKTISKAKGQPREPQVCTLPPSREEMTKNQVSLSCAVKGFYPSDIAVEWESNGQPENNYKTTPPVLDSDGSFFLVSKLTVDKSRWQQGNVFSCSVMHEALHNHYTQKSLSLSPGK chain 2: not shown | 790 pM |
| 9.91 nM | Antibody 109 (bispecific antibody) chain 1: not shown chain 2: DIQMTQSPSSLSASVGDRVTITCLASEDIYSYLAWYQQKPGKAPKLLIFAANRLQSGVPSRFSGSGSGTDFTLTISSLQPEDFATYYCLQGSKFPYTFGPGTKVDIKRTVAAPSVFIFPPSDEQLKSGTASVVCLLNNFYPREAKVQWKVDNALQSGNSQESVTEQDSKDSTYSLSSTLTLSKADYEKHKVYACEVTHQGLSSPVTKSFNRGEC chain 3: DKTHTCPPCPAPEAAGGPSVFLFPPKPKDTLMISRTPEVTCVVVDVSHEDPEVKFNWYVDGVEVHNAKTKPREEQYNSTYRVVSVLTVLHQDWLNGKEYKCKVSNKALPAPIEKTISKAKGQPREPQVCTLPPSREEMTKNQVSLSCAVKGFYPSDIAVEWESNGQPENNYKTTPPVLDSDGSFFLVSKLTVDKSRWQQGNVFSCSVMHEALHNHYTQKSLSLSPGK | 3800 pM |
| 12.1 nM | Antibody 107 (bispecific antibody) chain 1: not shown chain 2: DIQMTQSPSSLSASVGDRVTITCLASEDIYSYLAWYQQKPGKAPKLLIFAANRLQDGVPSRFSGSGSGTDFTLTISSLQPEDFATYYCLQGSKFPYTFGPGTKVDIKRTVAAPSVFIFPPSDEQLKSGTASVVCLLNNFYPREAKVQWKVDNALQSGNSQESVTEQDSKDSTYSLSSTLTLSKADYEKHKVYACEVTHQGLSSPVTKSFNRGEC chain 3: DKTHTCPPCPAPEAAGGPSVFLFPPKPKDTLMISRTPEVTCVVVDVSHEDPEVKFNWYVDGVEVHNAKTKPREEQYNSTYRVVSVLTVLHQDWLNGKEYKCKVSNKALPAPIEKTISKAKGQPREPQVCTLPPSREEMTKNQVSLSCAVKGFYPSDIAVEWESNGQPENNYKTTPPVLDSDGSFFLVSKLTVDKSRWQQGNVFSCSVMHEALHNHYTQKSLSLSPGK | 3870 pM |
| 5.33 nM | Antibody 110 (bispecific antibody) chain 1: not shown chain 2: DIQMTQSPSSLSASVGDRVTITCLASEDIYSYLAWYQQKPGKAPKLLIFAANRLQSGVPSRFSGSGSGTDFTLTISSLQPEDFATYYCLQGSKFPYTFGPGTKVDIKRTVAAPSVFIFPPSDEQLKSGTASVVCLLNNFYPREAKVQWKVDNALQSGNSQESVTEQDSKDSTYSLSSTLTLSKADYEKHKVYACEVTHQGLSSPVTKSFNRGEC chain 3: DKTHTCPPCPAPEAAGGPSVFLFPPKPKDTLMISRTPEVTCVVVDVSHEDPEVKFNWYVDGVEVHNAKTKPREEQYNSTYRVVSVLTVLHQDWLNGKEYKCKVSNKALPAPIEKTISKAKGQPREPQVCTLPPSREEMTKNQVSLSCAVKGFYPSDIAVEWESNGQPENNYKTTPPVLDSDGSFFLVSKLTVDKSRWQQGNVFSCSVMHEALHNHYTQKSLSLSPGK | 2540 pM |
| < 0.001 nM | Antibody 104 (bispecific antibody, human IgG1, kappa, L234A L235A) chain 1: not shown chain 2: DIQMTQSPSSLSASVGDRVTITCLASEDIYSYLAWYQQKPGKAPKLLIFAANRLQSGVPSRFSGSGSGTDFTLTISSLQPEDFATYYCLQGSKFPYTFGPGTKVDIKRTVAAPSVFIFPPSDEQLKSGTASVVCLLNNFYPREAKVQWKVDNALQSGNSQESVTEQDSKDSTYSLSSTLTLSKADYEKHKVYACEVTHQGLSSPVTKSFNRGECGGGGSGGGGSQVQLVQSGGGVVQPGRSLRLSCKASGYTFTRYTMHWVRQAPGKGLEWIGYINPSRGYTNYNQKVKDRFTISRDNSKNTAFLQMDSLRPEDTGVYFCARYYDDHYSLDYWGQGTPVTVSSGGGGSGGGGSGGGGSDIQMTQSPSSLSASVGDRVTITCSASSSVSYMNWYQQTPGKAPKRWIYDTSKLASGVPSRFSGSGSGTDYTFTISSLQPEDIATYYCQQWSSNPFTFGQGTKLQITR | 621 pM |
